The values that follow come from paper PMC4337483 (Journal of immunology (Baltimore, Md. : 1950), 2015).

Assay [1] addresses BTN3A1 B30.2 domain (BTN3A1 residues 310-513) (Homo sapiens, UniProt O00481). Description: isothermal titration calorimetry. The class given is binding. Background: Isothermal titration calorimetry measures the heat released or taken up as one component is titrated into another.
Assay [2] deals with BTN3A1 residues 310-513 (purified, His tag) (human) (UniProt O00481). Description: ITC.
The target in assay [3] is 3A1v2 cytoplasmic tail (protein used in ITC) (human). Put plainly: ITC.

On to `C=C(C)CCO[P@@](=O)(O)OP(=O)(O)O` [IPP], for which the dissociation constant (Kd) (usually the constant that tells how readily two partners part at equilibrium) in assay [1] worked out at 672000 nM.

B1: periplakin residues 133-530 (PPL BamH1, purified, His tag) (domain or fragment)
chain: DPQVNWAALVEEKLDKLNNQSFGTDLPLVDHQVEEHNIFHNEVKAIGPHLAKDGDKEQNSELRAKYQKLLAASQARQQHLSSLQDYMQRCTNELYWLDQQAKGRMQYDWSDRNLDYPSRRRQYENFINRNLEAKEERINKLHSEGDQLLAAEHPGRNSIEAHMEAVHADWKEYLNLLICEESHLKYMEDYHQFHEDVKDAQELLRKVDSDLNQKYGPDFKDRYQIELLLRELDDQEKVLDKYEDVVQGLQKRGQQVVPLKYRRETPLKPIPVEALCDFEGEQGLISRGYSYTLQKNNGESWELMDSAGNKLIAPAVCFVIPPTDPEALALADSLGSQYRSVRQKAAGSKRTLQQRYEVLKTENPGDASDLQGRQLLAGLDKVASDLDRQEKAITGILR
For B1, in assay [2], the Kd worked out at 2100 nM and the stoichiometry N (in general, the number of molecules, sites or subunits per partner or assembly) came to 1. In assay [3], this molecule had a Kd of 580 nM.
